# The DeepSol protein solubility set
# Test: soluble on expression in E. coli; label from the status in PepcDB or PDB records
row,Sequence,soluble on expression in E. coli
1,MAGDPMITETQLTAIQTYALQKLAHDHSGHGRDHLQRVNRLARRLAKDEGANLNLTLAAAWLHDVIDDKLMANPAKAHQDLIVQLNAQNVTADDQTAIFAIIDHMSFSKSFNGPQKLSLEGQVVQDADRLDAIGAIGIARALYYSGHVGEKIYDPAIAPREHMTREQYRHQPGTAINHFYEKLFKLAALMNTDTAKALAAHRTAVMHEFVDQFKAEWTADDKALEHHHHHH,soluble
2,MHRKRERERERERERERERERERERERERERGRDEETSKEKRVTET,soluble
3,GSSHCRFYENKYPEIDDIVMVNVQQIAEMGAYVKLLEYDNIEGMILLSELSRRRIRSIQKLIRVGKNDVAVVLRVDKEKGYIDLSKRRVSSEDIIKCEEKYQKSKTVHSILRYCAEKFQIPLEELYKTIAWPLSRKFGHAYEAFKLSIIDETVWEGIEPPSKDVLDELKNYISKR,soluble
4,MHHHHHHSSGMNWTVDIPIDQLPSLPPLPTDLRTRLDAALAKPAAQQPTWPADQALAMRTVLESVPPVTVPSEIVRLQEQLAQVAKGEAFLLQGGDCAETFMDNTEPHIRGNVRALLQMAVVLTYGASMPVVKVARIAGQYAKPRSADIDALGLRSYRGDMINGFAPDAAAREHDPSRLVRAYANASAAMNLVRALTSSGLASLHLVHDWNREFVRTSPAGARYEALATEIDRGLRFMSACGVADRNLQTAEIYASHEALVLDYERAMLRLSDGDDGEPQLFDLSAHTVWIGERTRQIDGAHIAFAQVIANPVGVKLGPNMTPELAVEYVERLDPHNKPGRLTLVSRMGNHKVRDLLPPIVEKVQATGHQVIWQCDPMHGNTHESSTGFKTRHFDRIVDEVQGFFEVHRALGTHPGGIHVEITGENVTECLGGAQDISETDLAGRYETACDPRLNTQQSLELAFLVAEMLRD,soluble
5,MTLKFSVERLVDSEKESEEADVEEQNNLKKLEEDEEDDELCEKSGKNEPLSQTLSYFDVLLPHVQMACSNPFISGIGASGSGDQNLNTGAGGSVWQHPWLELLQSTTAAQFGDVTAGLFLQPLRKNKRIRTAFSASQLIQLEKAFEGNHYVVGNERKQLAAKLSLTETQVKVWFQNRRTKHKRVRLEGSDPNAPMSNDEDDEDDKKSVS,not soluble
6,MGSDKIHHHHHHMTTLLRTRRFPPLNALRAFEAAARHLNFRLAADELGVTQGAVAQQVRHLEDVVAVQLFRRLPRGLALTREGLEYFSSVQRALQIISDATDALGERPTVLAVSTTPSFASKWLIPRLADFGRLHPDIEVRVIADERLASFRADGVDIAIRLSKPPFPAGLAAELLAPLDIFAVASPKLLDSGPPIRTPADLSTHALLHDAHDLWPEFIEKLGGKGRADPTKGPRFSQSLLAIDAAVAGQGIALTSEPLVERDIAEGRLRRVFDFSFPMSLGFYVVFPQANAHSEALQAMRRWLFAQYGKA,not soluble
7,MKIALMMENSQASKNAIIYNELSAVANEKGFPVFNVGMCDENDHHLTYIHLGIMASILLNANAVDFVVTGCGTGQGALMSLNIHPGVICGYCIDPADAFLFAQINNGNALSLPFAKGFGWGAELNVRFIFEKAFTGRKGEGYPPERKAPQVRNAGILNQVKAAVVKENYLDTLRAIDPELVKTAVSGPRFQQCLFENGQNKEIEAFVREMLG,not soluble
8,MGKNEILWGIAPIGWRNDDMPEIGAGNTLQHLLSDIVVARFQGTEVGGFFPEPAILNKELKLRNLRIAGKWFSSFILRDGLGEAAKTFTLHCEYLQQVNADVAVVSEQTYSVQSLEKNVFTEKPHFTDDEWERLCEGLNHLGEIAAQHGLKLVYHHHLGTGVQTAEEVDRLMAGTDPAHVHLLYDTGHAYISDGDYMGMLEKHIGRIKHVHFKDARLNVMEQCRLEGQSFRQSFLKGMFTVPGDGCIDFREVYQLLLKHSYSGWIVIEAEQDPDVANPLEYALIARNYIDQQLLDLAMGHHHHHHSH,soluble
9,MYVCHFENCGKAFKKHNQLKVHQFSHTQQLPYECPHEGCDKRFSLPSRLKRHEKVHAGYPCKKDDSCSFVGKTWTLYLKHVAECHQD,soluble
10,MTGIREGEKELSLLGSKTEYRNDYAPEVLEAFTNKHQENDYWVRFNCPEFTSLCPITGQPDFATIYINYIPDVKMVESKSLKLYLFSFRNHGAFHEDCVNIIMKDLIALMQPRYIEVWGDFTPRGGISIVPFCNYGKPGSRYELLAEKRMETHH,not soluble
11,VAGPIAVGCYPALGPTILPSMLYAFTAEYPRASVEFREDTQNRLRTQLEGGELDVAIVYDLDLSPEWQTVPLMTREPMVVLGAEHPLAGVDGPVRLADLAEHPMVLLDAPPSTNHAMDVCREAGFAPRVAYRTANFETARAFVGRGLGWTLLLQRPRVDVTYEGLPVVVKPIAEPKPASVAVVVAWHQEATLSRVARAFIRFVTA,soluble
12,MGSDKIHHHHHHILFELCFGLAVAQKNLGFIHNDLHSDNIMFKKCQQQFKYYQFHNKFFKVPTWCRETKVIDFARGILKVGKTTYFSDVFKNEGDAGGQYQYLNSQKNKKFNFHFDLARLATTIREFTENKKELQEIDNLLVDWCLNKNGDNFLEMDDDFSLYVMIASTADKCLPKDQIDNKIFRDFLISKEDIPAGEIIY,not soluble
13,IVPTRELENVFLGRCKDYEITRYLDILPRVRSDCSALWKDFFKAFSFKNPCDLDLGSYKDFFTSAQQQLPKNKVMFWSGVYDEAHDYANTGRKYITLEDTLPGYMLNSLVWCGQRANPGFNEKVCPDFKTCPVQARESFWGMASSSYAHSAEGEVTYMVDGSNPKVPAYRPDSFFGKYALPNLTNKVTRVKVIVLHRLGEKIIEKCGAGSLLDLEKLVKAKHFAFDCVENPRAVLFLLCSDNPNARECRLAKRFYRIA,soluble
14,MVALSNALSRVFGSLAGYKFPSFIQKGINALYVKIFKIDLSEFEPLENYRSLNALFTRSLKKERPFDKSPNICIAPCDALITECAFLDNDSALQIKGMPYKAHELVGEINPLSPSFFYANFYLSPKDYHHYHAPCDLEILEARYFAGKLLPVNKPSLHKNNNLFVGNERVTLVAKDIQGNRLYFVAVGALNVGKMRFNFDKNIQTNAKARFTQTYSYNPPIKVKKGDNLGNFEMGSTIVLFIQNTAFKDLKEKNVKFGESIGEFHANLEHHHHHH,soluble
15,MRKTWLSLLLLFILALSACGNAADDQKNNSASPKEKKPETITYQSENGPVEVPADPKRVVVLSTFAGHVLALDVPIVGVDSWSKMSPLFQEKLKDAEVVTDEDIEKIMALKPDLIIGLSNTKKVDKLSKIAPTVTFTYGKVDYLTQFLEIGKLLNKEKEAKAWIDDFKQRAQQAGEEIRAKIGENATVTVAENFDKQLYVFGNNWARGTEILYQEMKLKMPKAVEEQALKPGYYAVSLEALPQFVGDYLILSKNGDGDTSFMETNTFKNIPAVKNGHMFVADAKAFYFNDPITLDYQLDFFKKHFLGQ,not soluble
16,MGSDKIHHHHHHMAKSSLGQDSDSTAAVAVLKRAVELDAESRYQQALVCYQEGIDMLLQVLKGTKESSKRCVLRTKISGYMDRAENIKKYLDQEKEDGKYHKQIKIEENATGFSYESLFREYLHETVTEVWIEDPYIRQTHQLYNFLRFCEMLIKKPCKVRTIHLLTSGYEGLGNTQQSSGLEEIKQSLGSHGVVLEINYSSSIHDREIRFNNGWMIKIGRGLDYFKKPQGRFSLGYYDLDLRPCHETTVDIFHNKHTKKI,not soluble
17,PITLVKDILSKPPITAHSNISIMEAAKILIKHNINHLPIVDEHGKLVGIITSWDIAKALAQNKKTIEEIMTRNVITAHEDEPVDHVAIKMSKYNISGVPVVDDYRRVVGIVTSEDISRLFGGKK,soluble
